Assays:
[1] = target: T1, human TNFα in complex with compound (2) (human, UniProt P01375 77-233); assay: SPR BIAcore, compound-bound against apo TNFα
T1 construct: also called human TNFα + compound (2)

[2] = target: T2, human TNFα in complex with compound (1) (human, UniProt P01375 77-233); assay: SPR BIAcore, compound-bound against apo TNFα
T2 construct: also called human TNFα + compound (1); TNFα-compound (1) complex
T2 sequence (P01375 77-233 limits assumed, one chain of several): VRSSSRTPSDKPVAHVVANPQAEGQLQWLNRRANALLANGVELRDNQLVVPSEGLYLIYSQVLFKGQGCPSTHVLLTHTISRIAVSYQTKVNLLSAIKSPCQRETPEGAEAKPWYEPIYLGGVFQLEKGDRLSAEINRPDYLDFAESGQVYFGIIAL

T1 sequence (P01375 77-233 limits assumed, one chain of several): as above

B1: CA185_01979 mouse IgG1 (mIgG1, kappa) (antibody, V domains shown)
VH: EVHLVESGPGLVKPSQSLSLTCSVTGYSITNSYWDWIRKFPGNKMEWMGYINYSGSTGYNPSLKSRISISRDTSNNQFFLQLNSITTEDTATYYCARGTYGYNAYHFDYWGRGVMVTVSS
VL: DIQMTQSPASLSASLEEIVTITCQASQDIGNWLSWYQQKPGKSPHLLIYGTTSLADGVPSRFSGSRSGTQYSLKISGLQVADIGIYVCLQAYSTPFTFGSGTKLEIKR
notes: also called CA185_01979.0; VR0001842
[1]
  log selective binding against apo human TNFα: > 2 log
[2]
  log selective binding against apo human TNFα: > 2 log

Reference: patent US20210132079A1 (UCB, published 2021)
